Laboratory results from patent US20200055939A1 (Genentech, published 2020).
Like-named read-outs stand apart in the source and are kept apart here.

How the values were obtained:
[1] = biological target: T1, MICA.008.a3.T204-S297.C-terminal insert of N298.G299.S300.mIgG2a.Glyco17 (human; mouse, UniProt Q29983 204-297, engineered N-linked glycosylation site at inserted N298); experiment: ELISA, coated variant;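 further: ELISA with plates coated at 2 ug/ml with MICA*008 alpha 3 glycosylation variants as murine IgG2a Fc fusions, antibody binding detected by HRP anti-human IgG Fc and TMB absorbance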
T1 construct: not shown: murine IgG2a Fc
T1 chain: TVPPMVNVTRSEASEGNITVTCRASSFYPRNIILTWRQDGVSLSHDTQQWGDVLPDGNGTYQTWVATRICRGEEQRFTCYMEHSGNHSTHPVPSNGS

[2] = biological target: T2, MICA.008.a3.T204-S297.H248N.mIgG2a.Glyco15 (human; mouse, UniProt Q29983 204-297, engineered N-linked glycosylation site H248N); experiment: ELISA, coated variant;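 further: ELISA with plates coated at 2 ug/ml with MICA*008 alpha 3 glycosylation variants as murine IgG2a Fc fusions, antibody binding detected by HRP anti-human IgG Fc and TMB absorbance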
T2 construct: not shown: murine IgG2a Fc
T2 chain: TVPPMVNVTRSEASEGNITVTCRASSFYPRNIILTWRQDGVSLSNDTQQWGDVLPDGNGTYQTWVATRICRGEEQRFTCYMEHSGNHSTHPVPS

[3] = biological target: T3, MICA.008.a3.T204-S297.E215N.mIgG2a.Glyco12 (human; mouse, UniProt Q29983 204-297, engineered N-linked glycosylation site E215N); experiment: ELISA, coated variant;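 further: ELISA with plates coated at 2 ug/ml with MICA*008 alpha 3 glycosylation variants as murine IgG2a Fc fusions, antibody binding detected by HRP anti-human IgG Fc and TMB absorbance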
T3 construct: not shown: murine IgG2a Fc
T3 chain: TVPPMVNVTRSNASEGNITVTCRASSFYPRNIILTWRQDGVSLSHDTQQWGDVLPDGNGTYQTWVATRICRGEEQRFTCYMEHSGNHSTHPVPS

[4] = biological target: T4, MICA.008.a3.R202-S297.R202N mIgG2a.Glyco11 (human; mouse, UniProt Q29983 203-297, engineered N-linked glycosylation site R202N); experiment: ELISA, coated variant;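 further: ELISA with plates coated at 2 ug/ml with MICA*008 alpha 3 glycosylation variants as murine IgG2a Fc fusions, antibody binding detected by HRP anti-human IgG Fc and TMB absorbance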
T4 construct: not shown: murine IgG2a Fc
T4 chain: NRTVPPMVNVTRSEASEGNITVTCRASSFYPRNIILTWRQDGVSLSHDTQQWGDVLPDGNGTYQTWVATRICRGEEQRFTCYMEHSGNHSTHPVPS

[5] = biological target: T5, MICA.008.a3.T204-S297.I236T.mIgG2a.Glyco13 (human; mouse, UniProt Q29983 204-297, engineered N-linked glycosylation site created by I236T); experiment: ELISA, coated variant
T5 construct: not shown: murine IgG2a Fc
T5 chain: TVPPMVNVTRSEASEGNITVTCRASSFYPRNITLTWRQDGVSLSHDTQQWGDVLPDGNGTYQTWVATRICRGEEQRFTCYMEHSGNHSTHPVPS

[6] = biological target: T6, MICB005.His (human MICB*005 alpha 3 domain, His tagged) (human); experiment: SPR, antibody captured;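 further: SPR with antibody held by surface-bound anti-Fc while His-tagged alpha three domains flow over, Kd derived by fitting a one-to-one binding model to sensograms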
T6 construct: also called huMICB*005 alpha 3-his
T6 chain: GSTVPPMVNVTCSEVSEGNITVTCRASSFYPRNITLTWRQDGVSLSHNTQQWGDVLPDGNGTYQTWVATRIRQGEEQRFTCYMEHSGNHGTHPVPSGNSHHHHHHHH

[7] = biological target: T7, MICA002.His (human MICA*002 alpha 3 domain, His tagged) (human); experiment: SPR, antibody captured;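 further: SPR with antibody held by surface-bound anti-Fc while His-tagged alpha three domains flow over, Kd derived by fitting a one-to-one binding model to sensograms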
T7 construct: also called huMICA*002 alpha 3-his
T7 chain: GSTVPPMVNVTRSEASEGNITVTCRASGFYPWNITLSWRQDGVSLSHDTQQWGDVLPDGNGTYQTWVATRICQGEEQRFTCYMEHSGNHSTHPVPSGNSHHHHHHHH

[8] = biological target: T8, MICA008.His (human MICA*008 alpha 3 domain, His tagged) (human); experiment: SPR, antibody captured;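 further: SPR with antibody held by surface-bound anti-Fc while His-tagged alpha three domains flow over, Kd derived by fitting a one-to-one binding model to sensograms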
T8 construct: Also used for FPOP (expressed in CHO); also called huMICA*008 alpha 3-his; MICA*008 a3
T8 chain: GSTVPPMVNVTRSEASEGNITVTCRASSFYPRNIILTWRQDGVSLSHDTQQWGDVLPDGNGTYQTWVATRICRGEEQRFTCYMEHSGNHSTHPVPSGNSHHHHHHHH

[9] = biological target: T9, MICA004.His (human MICA*004 alpha 3 domain, His tagged) (human); experiment: SPR, antibody captured;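 further: SPR with antibody held by surface-bound anti-Fc while His-tagged alpha three domains flow over, Kd derived by fitting a one-to-one binding model to sensograms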
T9 construct: also called huMICA*004 alpha 3-his
T9 chain: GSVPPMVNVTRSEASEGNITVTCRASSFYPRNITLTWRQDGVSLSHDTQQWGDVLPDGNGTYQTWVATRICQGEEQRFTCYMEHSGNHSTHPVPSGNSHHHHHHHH

[10] = biological target: T10, MICA*008 on MEL-JUSO cells (human, UniProt Q29983 24-317); experiment: cell-based or functional assay
T10 chain: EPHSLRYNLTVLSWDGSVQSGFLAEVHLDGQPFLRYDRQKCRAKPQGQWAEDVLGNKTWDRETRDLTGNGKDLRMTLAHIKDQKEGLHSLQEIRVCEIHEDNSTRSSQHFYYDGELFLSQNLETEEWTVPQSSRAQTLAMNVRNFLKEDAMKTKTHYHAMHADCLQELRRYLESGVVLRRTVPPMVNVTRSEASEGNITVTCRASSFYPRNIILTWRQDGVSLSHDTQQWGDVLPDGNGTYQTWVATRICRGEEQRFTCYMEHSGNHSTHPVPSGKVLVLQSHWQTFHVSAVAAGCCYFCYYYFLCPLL

[11] = biological target: T11, MICA*004 on HCC1534 cells (human, UniProt Q29983 24-383); experiment: cell-based or functional assay
[12] = biological target: T12, MICB*005 on HCC1534 cells (human, UniProt Q29980 23-383); experiment: cell-based or functional assay
T12 sequence (looked up): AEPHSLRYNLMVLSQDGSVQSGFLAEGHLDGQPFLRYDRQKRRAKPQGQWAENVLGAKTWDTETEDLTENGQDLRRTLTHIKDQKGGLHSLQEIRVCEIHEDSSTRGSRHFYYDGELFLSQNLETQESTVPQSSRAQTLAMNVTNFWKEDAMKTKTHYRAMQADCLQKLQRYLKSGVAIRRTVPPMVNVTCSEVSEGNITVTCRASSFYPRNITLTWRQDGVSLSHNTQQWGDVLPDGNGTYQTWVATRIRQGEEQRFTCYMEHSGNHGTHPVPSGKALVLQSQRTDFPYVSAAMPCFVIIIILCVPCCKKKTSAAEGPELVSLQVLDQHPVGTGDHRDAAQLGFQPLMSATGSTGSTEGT

[13] = biological target: T10, MICA*008 on MEL-JUSO cells; experiment: cell-based or functional assay
[14] = biological target: T11, MICA*004 on HCC1534 cells; experiment: cell-based or functional assay; remark: listed apart in the source
[15] = biological target: MICA*002 on cells (PANC-1; B16-MICA002) (human, UniProt Q29983 24-383); experiment: cell-based or functional assay
[16] = biological target: T12, MICB*005 on HCC1534 cells; experiment: cell-based or functional assay; remark: listed apart in the source
[17] = biological target: T8, MICA008.His (human MICA*008 alpha 3 …); experiment: SPR (Biacore), MICA*008 alpha-3 domain

B1: 6F8.7 (antibody, V domains shown)
VH: DVQLQGSGPGLVKPSQSLSLTCSVTGYSITNDYYWNWIRQFPGNKLEWMGFISFGGSNNYNPSLKNRISITRDTSKNQFFLKLSSVTTEDTATYYCARYDGRGAWFAYWAQGTLVTVSA
VL: DIQMTQSPASLSASVGETVTITCRASGNIHNYLAWYQQKQGKSPQLLVYDAITLADGVPSRFSGSGSGTQYSLKINSLQPEDFGNYYCQHFWSFPLTFGAGTKVEIK
notes: Mouse hybridoma antibody; constant regions differ by assay
[1]
  binding result: binds
[2]
  binding result: binds
[3]
  binding result: binds
[4]
  binding result: binds
[5]
  binding result: binds
[6]
  Kd: 14.5 nM
[7]
  Kd: 2.4 nM
[8]
  Kd: 8.4 nM
[9]
  Kd: 6.2 nM
[10]
  % max inhibition of shedding: 47.5%
  EC50 of shedding inhibition: 0.163 µg/mL
[11]
  % max inhibition of shedding: 70%
  EC50 of shedding inhibition: 0.251 µg/mL

B2: 15F11 (antibody, V domains shown)
VH: EIQLQQSGPELVKPGASVRVSCKPSGYAFTSNNIYWVKQSRRKSLEWIGYIDPYIGRIIYNQQFKDKATLTVDKSSSTAYMHLNSLTSEDSAVYYCSRSGERSNFDYWGQGTTLTVSS
VL: EIVLTQSPTAMAASPGEKITITCSASSSISSNYLHWYQQKPGFSPKLLIYRTSNLASGVPARFSGSGSGTSYSLTIGPMEAEDVATYYCQQGGSLPLTFGAGTKVEIK
notes: Mouse variable domains; constant regions differ by assay
[12]
  EC50 of shedding inhibition: 0.102 µg/mL
  Max % Inhibition of shedding: 60%
[13]
  EC50 of shedding inhibition: 0.0255 µg/mL
  Max % Inhibition of shedding: 73%
[14]
  EC50 of shedding inhibition: 0.0375 µg/mL
  Max % Inhibition of shedding: 64%
[15]
  EC50 of shedding inhibition: 0.0752 µg/mL
  Max % Inhibition of shedding: 54%
[1]
  binding result: binds
[2]
  binding result: binds
[3]
  binding result: binds
[4]
  binding result: binds
[5]
  binding result: binds
[6]
  Kd: 3.28 nM
[7]
  Kd: 3.05 nM
[8]
  Kd: 1.02 nM
[9]
  Kd: 1.22 nM
[16]
  % max inhibition of shedding: 59%
  EC50 of shedding inhibition: 0.0736 µg/mL
[10]
  % max inhibition of shedding: 74%
  EC50 of shedding inhibition: 0.0165 µg/mL
[11]
  % max inhibition of shedding: 86%
  EC50 of shedding inhibition: 0.0485 µg/mL

B3: 3E11 (antibody, V domains shown)
VH: EIQLQQSGPELVKPGASVKVSCTASGYAFTKYNIYWVKQSHGKSLEWIGYIDPYTGGTISNQKFTGRATLTVDKSSSTAYLHLNSLTSEDSAVYYCARPGSYWYFGVWGAGTTVTVSS
VL: DILMTQTPLSLPVSLGDQASISCRSSQSIVYTNGNTNLEWYLQKPGQSPKLLIYKVSNRFSGVPDRFSGSGSGTDFTLKISRVEAEDLGVYYCFQASYVPFTFGSGTKVEIK
notes: as for B1
[1]
  binding result: binds
[2]
  binding result: binds
[3]
  binding result: binds
[4]
  binding result: binds
[5]
  binding result: binds
[6]
  Kd: 6.8 nM
[7]
  Kd: 7.7 nM
[8]
  Kd: 2.5 nM
[9]
  Kd: 5 nM
[10]
  % max inhibition of shedding: 70%
  EC50 of shedding inhibition: 0.265 µg/mL
[11]
  % max inhibition of shedding: 55%
  EC50 of shedding inhibition: 0.309 µg/mL

B4: 32D2 (antibody, V domains shown)
VH: DVHLVESGGGLVQPGGSRKLSCAASGFTFNTFGMNWVRQAPEKGLEWVAYINSGSNTIYYADTVKGRFTISRDNPKNTLFLQMTSLRSEDTAMYYCTRWEPVTGGFSYWGQGTLVTVSA
VL: QIVLTQSPAFKSSSLGERVTMTCTASSSISSSYLHWYQQKPGSSPKLWIYTTSNLASGVPARFSGSGSGTSYSLTISTMEAEDAATYYCHQHHRSPFTFGSGTKVEIK
notes: as for B1
[17]
  Kd: 4 nM
[1]
  binding result: binds
[2]
  binding result: binds
[3]
  binding result: binds
[4]
  binding result: binds
[5]
  binding result: binds
[6]
  Kd: 2.82 nM
[7]
  Kd: 3.18 nM
[8]
  Kd: 1.94 nM
[9]
  Kd: 2.85 nM
[16]
  % max inhibition of shedding: 54%
  EC50 of shedding inhibition: 0.0781 µg/mL
[10]
  % max inhibition of shedding: 71%
  EC50 of shedding inhibition: 0.0303 µg/mL
[11]
  % max inhibition of shedding: 76%
  EC50 of shedding inhibition: 0.0592 µg/mL

B5: 7D4.6 (antibody, V domains shown)
VH: DVQLQESGPGLVKPSQSLSLTCTVTGYSITSDYAWNWIRQFPRNKLEWMGYINYSGTTNYNPSLKSRISITRDTSKNQFFLQLISVTTEDTATYYCSYYRYDGAWFPYWGQGTLVTVSA
VL: DIQMTQSPASLSASVGETVTITCRASGNIHNYLAWYQQKQGKSPQLLVYNAIMLADGVPSRFSASGSGTQYSLKINSLQPEDFGSYYCQHFWSFPLTFGAGTKVEIK
notes: as for B1
[1]
  binding result: binds
[2]
  binding result: binds
[3]
  binding result: binds
[4]
  binding result: binds
[5]
  binding result: binds
[6]
  Kd: 20 nM
[7]
  Kd: 3.5 nM
[8]
  Kd: 10 nM
[9]
  Kd: 8.9 nM
[10]
  % max inhibition of shedding: 26%
[11]
  % max inhibition of shedding: 63%
  EC50 of shedding inhibition: 0.185 µg/mL
